Results taken from PMC4048344 (Channels, 2014).

Columns and labels:
[1] = target: MBP-tagged SK2-ARK C-terminus (aa 368-553) (chicken); test: pull-down
[2] = target: chicken SK2-ARK splice variant, full length, expressed in Xenopus oocytes (chicken); test: co-IP
[3] = target: chicken SK2 (isoform lacking the ARK insert), full length, expressed in Xenopus oocytes (chicken, UniProt Q9PTS9 1-553); test: co-IP
[4] = target: MBP-tagged SK2 C-terminus (aa 368-553) (chicken, UniProt Q9PTS9 368-553); test: pull-down

Question: Which results are given for “GST-tagged full-length human α-actinin-1 (from UniProt P12814-3 1-914) (natural protein)”?
Answer: bound α-actinin-1, percent of that bound to SK2 [1]: 81.2 % of SK2; fold increase in binding with 1 mM CaCl2 against 5 mM BAPTA [1]: 6.8 fold

Question: With “HA-tagged α9/10-nicotinic acetylcholine receptor (chicken α9 and α10-HA subunits) (from UniProt Q9PTS8 28-484; Q9I8C7 27-452) (complex)” as the molecule, how does the co-precipitated α9/10-nAChRs, percent of that with SK2 [2] read?
Answer: The co-precipitated α9/10-nAChRs, percent of that with SK2 was 173 % of SK2.

Question: For “calmodulin, purified from bovine brain (from UniProt P62157 1-149) (natural protein)”, which co-precipitated CaM with 5 mM BAPTA, percent of that with SK2 [1] is on record?
Answer: The co-precipitated CaM with 5 mM BAPTA, percent of that with SK2 was 142 % of SK2.

B1: HA-tagged α9/10-nicotinic acetylcholine receptor (chicken α9 and α10-HA subunits) (complex)
chain 1: AKGKYAQMLFNELFEDYSNALRPVEDTDKVLNVTLQITLSQIKDMDERNQILTAYLWIRQSWYDAYLKWDKDKYDGLDSIRIPSNLVWRPDIVLYNKADDDFSEPVNTNVVLRYDGKITWDAPAITKSSCVVDVSYFPFDSQQCNLTFGSWTYNGNQVDIINSLDSGDLSDFVEDVEWEIHGMPAVKNVITYGCCSEPYPDVTFTLILKRKSSFYIFNLLLPCILISFLAPLGFYLPADSGEKVSLGVTVLLALTVFQLMVAEIMPPSENVPLIGKYYIATMTMITASTALTIIIMNVHHCGSEAKPVPQWARVVILDYMSKIFFVYDVGENCTSPRREKEQEHRLEGGDMCRGGDGKSHLSSRNDDSDLKENLNGNWNKSFGVHGENVRENVNCCSCYKMLIKNIEYIANCVRDHKANRAKGIEWKKVAKVMDRFFMWIFFIMVFFMSVLIIGKAA
chain 2: AQGRLAHKLLHDLFANYSSALRPAEDTERALNVTLQVTLSQIIDMDERNQVLTSYLWVRQAWLDAHLAWDKDAYGGIDSIRIPSSYVWRPDIVLYNNADERFGGSMETNVVLRSDGHIMWDSPAITKSSCKVDVSYFPFDGQQCRLTFGSWTYNGNQIDLRNLLDTGDLTDFVENVEWEVLGMPATRNVVTYGCCSEPYPDVTYTLLLRRRASFYIFNLLLPCVMISFLAPLGFYLPADSGEKVSLGVTVLLALTVFQLLVAESMPPSESVPLIGKYYIATMTMITASTALTIFIMNIHHCGPGARPVPPWARRLILHHLARALCVCEVGESCGRPQREGTGGMGPRDPPGEGVEPGLCPRSRCLCHHHAVLSSVGYIAGVFRRHRTAQRRAAEWKKVAKVMDRFFMWVFFLMVFLMSVLVIGKAA
Question: With B1 as the molecule, how does the “fold change of co-precipitation after BAPTA-AM” value [3] read?
Answer: Its value is 2 fold.

B2: GST-tagged full-length human α-actinin-1 (natural protein, UniProt P12814-3 1-914, looked up)
chain: MDHYDSQQTNDYMQPEEDWDRDLLLDPAWEKQQRKTFTAWCNSHLRKAGTQIENIEEDFRDGLKLMLLLEVISGERLAKPERGKMRVHKISNVNKALDFIASKGVKLVSIGAEEIVDGNVKMTLGMIWTIILRFAIQDISVEETSAKEGLLLWCQRKTAPYKNVNIQNFHISWKDGLGFCALIHRHRPELIDYGKLRKDDPLTNLNTAFDVAEKYLDIPKMLDAEDIVGTARPDEKAIMTYVSSFYHAFSGAQKAETAANRICKVLAVNQENEQLMEDYEKLASDLLEWIRRTIPWLENRVPENTMHAMQQKLEDFRDYRRLHKPPKVQEKCQLEINFNTLQTKLRLSNRPAFMPSEGRMVSDINNAWGCLEQVEKGYEEWLLNEIRRLERLDHLAEKFRQKASIHEAWTDGKEAMLRQKDYETATLSEIKALLKKHEAFESDLAAHQDRVEQIAAIAQELNELDYYDSPSVNARCQKICDQWDNLGALTQKRREALERTEKLLETIDQLYLEYAKRAAPFNNWMEGAMEDLQDTFIVHTIEEIQGLTTAHEQFKATLPDADKERLAILGIHNEVSKIVQTYHVNMAGTNPYTTITPQEINGKWDHVRQLVPRRDQALTEEHARQQHNERLRKQFGAQANVIGPWIQTKMEEIGRISIEMHGTLEDQLSHLRQYEKSIVNYKPKIDQLEGDHQLIQEALIFDNKHTNYTMEHIRVGWEQLLTTIARTINEVENQILTRDAKGISQEQMNEFRASFNHFDRDHSGTLGPEEFKACLISLGYDIGNDPQKKTGMMDTDDFRACLISMGYNMGEAEFARIMSIVDPNRLGVVTFQAFIDFMSRETADTDTADQVMASFKILAGDKNYITMDELRRELPPDQAEYCIARMAPYTGPDSVPGALDYMSFSTALYGESDL
Question: Which “fold increase in binding with 1 mM CaCl2 against 5 mM BAPTA” value [4] does the source give for B2 here?
Answer: The value was 3.2 fold.
